# Reference: publication PMC3246388 (Biomacromolecules, 2011)
# Molecular target: the molecule itself
# Assay: SEC + other: dynamic light scattering + other: transmission electron microscopy
protein,measurement,value
"bacteriophage Qβ coat protein, assembled as the recombinant virus-like particle (natural protein) MAKLETVTLGNIGKDGKQTLVLNPRGVNPTNGVASLSQAGAVPALEKRVTVSVSQPSRNRKNYKVQVKIQNPTACTANGSCDPSVTRQAYADVTFSFTQYSTDEERAFVRTELAALLASPLLIDAIDQLNPAY",binding result,binds
